In patent US8497352B2, “Use of Wnt5-α peptide derivates for the treatment of melanoma and gastric cancer” (Wntresearch AB, priority 2008, dated 2013):

How the values were obtained:
Format in all cases: cell-based, human
[1] = tested on: Wnt-5a-induced Ca^2+ signaling; assay: Determination of cytosolic free calcium levels (fura-2) in A2058 cells; conditions: 0.1 μg/ml Wnt-5a
Method: Cells grown on a glass cover slip were incubated with 4 μM fura-2/AM in culture medium for 30 minutes at 37° C. (Dejmek et al., 2006). After fura-2 loading of the cells, the cover slips were washed and mounted in a specially designed chamber to which was added a calcium-containing medium (136 mM NaCl, 4.7 mM KCl, 1.2 mM MgSO4, 1.1 mM CaCl2, 1.2 KH2PO4, 5 mM NaHCO3, 5.5 mM glucose and 20 mM Hepes, pH 7.4). The chamber was then placed in a system consisting of a NIKON Diaphot microscope connected to a Photon Technology International (PTI) imaging system. The cells were first allowed to rest for 10 minutes before any stimulation was performed. Fura-2 fluorescence was then recorded continuously from the cells before and after the stimulations with either Wnt-5a, endothelin-1 or charbacol (as indicated in the legend to FIG. 8) using an excitation wavelength rapidly alternating between 340 and 380 nm, while the emission wavelength was set at 510 nm. The fluorescence intensity ratios (340/380 nm) were subsequently calculated and analyzed using the PTI Image Master Software. Statistical analysis—The Student's t-test for unpaired samples was used to analyze differences in the experiments, where *=p<0.05, **=p<0.01, and ***=p<0.001

A2058 melanoma cells [2] = assay: BD Matrigel invasion chamber assay, A2058 cells; conditions: 0.2 μg/ml Wnt-5a, 24 hours
Method: Cell invasion was analyzed using the BD Matrigel™ invasion chamber assay (BD Biosciences, Bedford, Mass.). Prior to the initiation of each experiment, the cells were detached with Versene and re-suspended as single cells in serum-free RPMI medium. As indicated, cells were pre-incubated with the Box5 peptide (100 μM) or control solvent for 40 min with continuous agitation. An aliquot of the cell suspension containing 25,000 cells and 100 μM Box5 or control solvent was then added to the upper transwell chamber, and the lower chamber was filled with serum-containing (10%) medium. The invasion chambers were shaken horizontally for 5 min to ensure even distribution of the cells in suspension and subsequently across the membrane surface. The cells were allowed to invade for the periods of time indicated at 37° C. in a humidified atmosphere of 5% CO2. The medium was discarded and cells were fixed in 4% paraformaldehyde for 10 min. The cells were stained with 0.5% crystal violet in 20% methanol for 10 min and the non-invading cells on the inner side of the membrane were removed with a cotton-tipped applicator. The membrane was cut out of the chamber using a scalpel blade and the stained cells on the lower chamber side of the membrane were counted.

A2058 melanoma cells [3] = assay: Wound-healing assay (migration), A2058 cells; conditions: 0.2 μg/ml Wnt-5a, serum-free medium
Method: Cells were plated in 12 well plates and allowed to grow into a confluent layer in complete RPMI (for A2058 cells) or complete McCoy's 5A medium (for HTB63 cells). As indicated, cells were pre-incubated with the Box5 peptide (100 μM) or control solvent for 40 min with continuous agitation. A wound was then inflicted by making a scratch through the confluent layer of cells with a pipette tip. During the migration period of the assay, cells were incubated either in serum-free medium or in the case of HTB63 cells in their own serum-free-conditioned medium collected from cells cultured for 48 h and used within 2 days after collection. The exact conditions of each experiment are described above. To avoid loss of activity, cell medium was changed after 24 hours. A picture for each scratch was taken in the same area of cells at 0, 16, 24, 40 and 48 hours, and wound healing was measured as percentage of wound area closed. For each experimental condition wound healing was analysed in triplicate. All data were based on 3 to 8 separate experiments as indicated.

B1: Wnt-5a: human recombinant Wnt-5a protein from R&D Systems (protein, UniProt P41221 62-380, looked up)
Protein Wnt-5a: IIGAQPLCSQLAGLSQGQKKLCHLYQDHMQYIGEGAKTGIKECQYQFRHRRWNCSTVDNTSVFGRVMQIGSRETAFTYAVSAAGVVNAMSRACREGELSTCGCSRAARPKDLPRDWLWGGCGDNIDYGYRFAKEFVDARERERIHAKGSYESARILMNLHNNEAGRRTVYNLADVACKCHGVSGSCSLKTCWLQLADFRKVGDALKEKYDSAAAMRLNSRGKLVQVNSRFNSPTTQDLVYIDPSPDYCVRNESTGSLGTQGRLCNKTSEGMDGCELMCCGRGYDQFKTVQTERCHCKFHWCCYVKCKKCTEIVDQFVCK
- Cytosolic Ca^2+ signal in A2058 cells [1]: triggers a rapid cytosolic Ca^2+ signal
- Effect on invasion of A2058 cells (A2058 melanoma cells [2]): stimulate
- Effect on migration of A2058 cells (A2058 melanoma cells [3]): increased
